# Laboratory results reported in patent US20230071422A1 (BEIJING WISDOMAB BIOTECHNOLOGY, published 2023).
# T1: extracellular region of human CD123 subtype 1 with C-terminal His tag (hCD123-SP1-his) (human (Homo sapiens), UniProt P26951 19-305)
# T1 construct: Recombinant, expressed in HEK293 cells
# T1 sequence: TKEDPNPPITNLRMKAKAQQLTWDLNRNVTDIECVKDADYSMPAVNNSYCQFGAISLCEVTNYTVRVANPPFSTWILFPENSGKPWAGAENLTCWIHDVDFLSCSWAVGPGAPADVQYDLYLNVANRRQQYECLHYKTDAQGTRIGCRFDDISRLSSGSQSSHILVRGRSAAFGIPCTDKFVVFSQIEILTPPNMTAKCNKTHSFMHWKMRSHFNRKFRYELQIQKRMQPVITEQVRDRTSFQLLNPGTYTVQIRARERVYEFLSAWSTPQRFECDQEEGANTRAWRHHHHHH
# T2: extracellular region of cynomolgus monkey CD3E with C-terminal His tag (mfCD3E-his) (cynomolgus monkey (Macaca fascicularis), UniProt Q95LI5 22-117)
# T2 construct: Recombinant, expressed in HEK293 cells
# T2 sequence: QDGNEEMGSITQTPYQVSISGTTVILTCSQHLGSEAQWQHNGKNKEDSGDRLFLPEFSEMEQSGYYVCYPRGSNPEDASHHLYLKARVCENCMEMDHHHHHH
# B1: bispecific antibody CD3E×CD123 (bispecific antibody, human IgG1, kappa)
# heavy 1: EVQLVESGGGLVQPGGSLRLSCAASGFTFSNAWMHWVRQAPGKGLEWVGQIKDKSNNYATYYADAVKGRFTISRDDSKNSLYLQMNSLKTEDTAVYYCRYVHYGVRFFYTMDVWGQGTTVTVSSASTKGPSVFPLAPSSKSTSGGTAALGCLVKDYFPEPVTVSWNSGALTSGVHTFPAVLQSSGLYSLSSVVTVPSSSLGTQTYICNVNHKPSNTKVDKRVEPKSCDKTHTCPPCPAPEFEGGPSVFLFPPKPKDTLMISRTPEVTCVVVDVSHEDPEVKFNWYVDGVEVHNAKTKPREEQYNSTYRVVSVLTVLHQDWLNGKEYKCKVSNKALPASIEKTISKAKGQPREPQVYTLPPCREEMTKNQVSLWCLVKGFYPSDIAVEWESNGQPENNYKTTPPVLDSDGSFFLYSKLTVDKSRWQQGNVFSCSVMHEALHNHYTQKSLSLSPGK
# heavy 2: QVQLVQSGAEVKKPGASVKVSCKASGYTFTSYDVSWVRQAPGQRLEWMGWVYPVDGSTKFNEKFKGRVTLTADRSSSTAYMELSSLRSEDTAVYYCARLTYGDFGDAMDYWGQGTLVTVSSASTKGPSVFPLAPSSKSTSGGTAALGCLVKDYFPEPVTVSWNSGALTSGVHTFPAVLQSSGLYSLSSVVTVPSSSLGTQTYICNVNHKPSNTKVDKRVEPKSCDKTHTCPPCPAPEFEGGPSVFLFPPKPKDTLMISRTPEVTCVVVDVSHEDPEVKFNWYVDGVEVHNAKTKPREEQYNSTYRVVSVLTVLHQDWLNGKEYKCKVSNKALPASIEKTISKAKGQPREPQVCTLPPSREEMTKNQVSLSCAVKGFYPSDIAVEWESNGQPENNYKTTPPVLDSDGSFFLVSKLTVDKSRWQQGNVFSCSVMHEALHNHYTQKSLSLSPGK
# light: DIVMTQTPLSLSVTPGQPASISCKSSQSLVHSNDNTYLTWYLQKPGQSPQLLIYKVSNRFSGVPDRFSGSGSGTDFTLKISRVEAEDVGVYYCGQGTQYPFTFGQGTKLEIKRTVAAPSVFIFPPSDEQLKSGTASVVCLLNNFYPREAKVQWKVDNALQSGNSQESVTEQDSKDSTYSLSSTLTLSKADYEKHKVYACEVTHQGLSSPVTKSFNRGEC
# notes: also called CD3×CD123 BsAb; CD3E×CD123 BsAb
# Assays:
# [1] = target: T1, extracellular region of human CD123 …; experiment: SPR, Biacore X100; antibody captured by anti-human IgG (Fc), hCD123-SP1-his as analyte, 1:1 model
# Procedure: The affinity of anti-CD123 antibodies was determined by surface plasmon resonance using Biacore X100. Related reagents and consumables such as Amino Conjugation Kit (BR-1000-50), Human Antibody Capture Kit (BR-1008-39), CM5 Chip (BR100012) and 10×HBS-EP (BR100669) buffer with pH 7.4 were all purchased from GE healthcare. According to the instructions in the kits, 1-Ethyl-3-(3-dimethylaminopropyl) carbodiimide hydrochloride (EDC) and N-Hydroxysuccinimide (NHS) was used to activate the surface of the carboxylated CM5 chip, and the anti-human IgG (Fc) antibody (capture antibody) was diluted to 25 μg/mL with 10 mM, pH5.0 sodium acetate, followed by an injection with a flow rate at 10 μL/min to achieve a coupling volume of approximately 10,000 response units (RU). Following the injection of the capture antibody, 1 M ethanolamine was injected to block unreacted groups. […] The chip surface was regenerated by injecting 3M MgCl₂ solution at 10 μL/min for 30 s. Association rates (Kₒₙ) and dissociation rates (Koff) were calculated from association and dissociation sensorgrams fitted by a 1:1 binding model using Biacore X100 evaluation software version 2.0.1. The dissociation equilibrium constant (KD) was calculated as the ratio Koff/Kₒₙ.
# [2] = target: T3, CD123 on the surface of CD123-positive cells (KG-1a, MV-4-11) (human, UniProt P26951 19-378); experiment: flow cytometry on MV-4-11 cells, titration from 100 nM, goat anti-human IgG-FITC
# T3 construct: whole, on cells; Endogenous CD123 on KG-1a (human acute myeloid leukemia) and MV-4-11 (human acute monocytic leukemia) cells; also called cell surface CD123 antigen; CD123 on the surface of MV-4-11 cells
# Procedure: MV-4-11 cells at the logarithmic phase of growth were used and resuspended to 2×10⁶ […] with PBS buffer containing 1% BSA after centrifugation. MV-4-11 cells were plated in a 96-well V-bottom plate at 100 μL/well, and the supernatant was removed after centrifugation. […] The antibodies were added to the wells containing cells and incubated at 4° C. for 1 hour. Then, the plate was washed three times with 200 μL PBS buffer. The goat anti-human IgG-FITC secondary antibody (ZF-0308, ZSGB-BIO) was added to the wells (100 μL/well), and incubated at 4° C. for 30 minutes in the dark. Then, the cells were washed three times with 200 μL of PBS buffer, and resuspended in 100 μL of PBS buffer to detect FITC channel by flow cytometer (ACEA, Novocyte).
# [3] = target: T2, extracellular region of cynomolgus …; experiment: SPR, Biacore X100; antibody captured by anti-human IgG (Fc), mfCD3E-his as analyte, 1:1 model
# Procedure: (§1) The chip surface was regenerated by injecting 3M MgCl₂ solution at 10 μL/min for 30 s. Association rates (Kₒₙ) and dissociation rates (Koff) were calculated from association and dissociation sensorgrams fitted by a 1:1 binding model using Biacore X100 evaluation software version 2.0.1. The dissociation equilibrium constant (KD) was calculated as the ratio Koff/Kₒₙ.
# [4] = target: T4, extracellular region of human CD3E with C-terminal His tag (hCD3E-his) (human (Homo sapiens), UniProt P07766 23-126); experiment: SPR, Biacore X100; antibody captured by anti-human IgG (Fc), hCD3E-his as analyte, 1:1 model
# T4 construct: Recombinant, expressed in HEK293 cells
# T4 sequence (P07766 other isoform, or with tags, fused parts or gaps limits assumed): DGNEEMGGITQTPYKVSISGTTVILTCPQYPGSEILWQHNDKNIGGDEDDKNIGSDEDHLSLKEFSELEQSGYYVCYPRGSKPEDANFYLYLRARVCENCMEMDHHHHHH
# Procedure: as §1
binder,measurement,setting,value
B1,Kd,[1],0.178 nM
same,koff,[1],4.02e-05 s⁻¹
same,kon,[1],225000 M⁻¹ s⁻¹
same,Kd,[2],7.08 nM
same,Kd,[3],11.5 nM
same,koff,[3],0.00157 s⁻¹
same,kon,[3],137000 M⁻¹ s⁻¹
same,Kd,[4],14.1 nM
same,koff,[4],0.000797 s⁻¹
same,kon,[4],56500 M⁻¹ s⁻¹
